Numbering of substitutions follows the chain as printed.
B1: NPR1-HA (other)
chain: MDTTIDGFADSYEISSTSFVATDNTDSSIVYLAAEQVLTGPDVSALQLLSNSFESVFDSPDDFYSDAKLVLSDGREVSFHRCVLSARSSFFKSALAAAKKEKDSNNTAAVKLELKEIAKDYEVGFDSVVTVLAYVYSSRVRPPPKGVSECADENCCHVACRPAVDFMLEVLYLAFIFKIPELITLYQRHLLDVVDKVVIEDTLVILKLANICGKACMKLLDRCKEIIVKSNVDMVSLEKSLPEELVKEIIDRRKELGLEVPKVKKHVSNVHKALDSDDIELVKLLLKEDHTNLDDACALHFAVAYCNVKTATDLLKLDLADVNHRNPRGYTVLHVAAMRKEPQLILSLLEKGASASEATLEGRTALMIAKQATMAVECNNIPEQCKHSLKGRLCVEILEQEDKREQIPRDVPPSFAVAADELKMTLLDLENRVALAQRLFPTEAQAAMEIAEMKGTCEFIVTSLEPDRLTGTKRTSPGVKIAPFRILEEHQSRLKALSKTVELGKRFFPRCSAVLDQIMNCEDLTQLACGEDDTAEKRLQKKQRYMEIQETLKKAFSEDNLELGNSSLTDSTSSTSKSTGGKRSNRKLSHRRR
notes: Full-length wild-type NPR1, transiently expressed in N. benthamiana; also called HA-fused NPR1; WT NPR1; not shown: C-terminal HA tag (pLN462)
B2: rdr3: NPR1 with cysteine cluster of RDR3 mutated (C511/521/529A) (protein)
chain: B1 chain with C511A, C521A, C529A
modifications: A. thaliana npr1 rdr3 protein
B3: rdr2: NPR1 with cysteine cluster of RDR2 mutated (C378/385/394A) (protein)
chain: B1 chain with C378A, C385A, C394A
modifications: A. thaliana npr1 rdr2 protein
B4: rdr2-HA (other)
chain: B1 chain with C378A, C385A, C394A
notes: not shown: C-terminal HA tag (pLN462)
B5: rdr1-HA (other)
chain: B1 chain with C150A, C155A, C156A, C160A
notes: as for B4
B6: sim3-HA (other)
chain: B1 chain with I345A, L346A, L348A
notes: SUMOylation-deficient mutant of NPR1; also called npr1sim3; HA-fused sim3; not shown: C-terminal HA tag (pLN462)

Columns and labels:
[1] = biological target: T1, Myc-CUL3 (Arabidopsis thaliana, UniProt Q9ZVH4 1-732); experiment: co-IP, co-expression in N. benthamiana, 1 mM SA
T1 construct: also called AtCUL3A (AT1G26830); not shown: N-terminal Myc tag (pEG203)
T1 sequence (looked up): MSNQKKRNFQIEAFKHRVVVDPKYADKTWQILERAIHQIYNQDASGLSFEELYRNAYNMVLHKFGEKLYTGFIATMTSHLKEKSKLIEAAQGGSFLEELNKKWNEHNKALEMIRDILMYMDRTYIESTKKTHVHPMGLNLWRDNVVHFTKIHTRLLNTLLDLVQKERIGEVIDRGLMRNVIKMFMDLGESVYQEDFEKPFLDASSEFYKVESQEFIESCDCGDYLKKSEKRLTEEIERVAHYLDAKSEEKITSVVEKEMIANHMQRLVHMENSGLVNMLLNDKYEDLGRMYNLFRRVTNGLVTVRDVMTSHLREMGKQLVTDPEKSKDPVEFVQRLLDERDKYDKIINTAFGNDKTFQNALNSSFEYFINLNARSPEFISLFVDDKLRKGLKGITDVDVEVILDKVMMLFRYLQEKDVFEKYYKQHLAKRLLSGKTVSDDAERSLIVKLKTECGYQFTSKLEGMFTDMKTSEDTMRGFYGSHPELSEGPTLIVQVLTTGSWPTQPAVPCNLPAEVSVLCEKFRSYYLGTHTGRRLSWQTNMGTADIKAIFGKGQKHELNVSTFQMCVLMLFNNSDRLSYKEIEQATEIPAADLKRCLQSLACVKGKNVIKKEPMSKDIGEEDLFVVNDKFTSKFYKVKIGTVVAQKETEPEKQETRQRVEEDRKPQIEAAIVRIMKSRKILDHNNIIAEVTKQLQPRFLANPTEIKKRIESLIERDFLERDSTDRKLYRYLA

[2] = test system: Psm ES4326/AvrRpt2-mediated cell death; experiment: Cell death (conductivity/electrolyte leakage, trypan blue) after Psm ES4326/AvrRpt2 inoculation; assay type: in vivo, Arabidopsis thaliana; conditions: transgenic plants expressing the mutant in npr1-2 background; 1 mM SA 24 hr before inoculation
Experimental: Chemical treatment, pathogen infection and cell death assays. […] At 2 days, the bacterial colonies were scored.
Trypan blue staining. Leaves of three-week-old Arabidopsis infected with Psm ES4326/AvrRpt2 were sampled at 1 dpi, boiled in 95% ethanol until completely bleached, followed by boiling for 3 min in a 1:1 mixture of 95% ethanol and staining solution (10 ml lactic acid, 10 ml glycerol, 10 g phenol and 10 mg trypan blue, dissolved in 10 ml DDW). The leaves were then de-stained in 2.5 g/ml chloral hydrate solution and transferred to 70% glycerol for subsequent imaging.

[3] = test system: cytoplasmic condensates (SINCs); experiment: Confocal imaging of localization and condensate (body) formation of GFP-fused NPR proteins and variants; assay type: cell-based, Nicotiana benthamiana; conditions: for condensate formation in the absence of SA (constitutive): no SA treatment / mock
Experimental: (§1) Plant transformation: For plant transformations, the Agrobacterium tumefaciens strain GV3101 was transformed with plant binary vectors carrying the indicated transgenes. For stable expression in Arabidopsis, a floral dipping method was used. For transient expression in N benthamiana, the Agrobacterium carrying the indicated construct was cultured overnight at 28° C. in Luria-Bertani (LB) broth medium supplemented with appropriate antibiotics: spectinomycin (100 μg/ml), kanamycin (50 μg/ml), gentamycin (50 μg/ml), and rifampicin (25 μg/ml). The obtained culture was re-inoculated at 1:10 into fresh growth media with antibiotics and grown for another 4 hr. Cells were then spun down at 1,600 g for 10 min, and inoculum was prepared by resuspending cells to OD600 nm=1 in double distilled water (DDW) containing 200 μM acetosyringone (Sigma). Unless otherwise stated, for co-IP, co-localization, and BiFC assays in N. benthamiana, the proteins were co-expressed at 1:1 mixture of the relevant Agrobacteria inoculums. In all BiFC assays, the pair of YN/YC fusions was co-expressed together with free mCherry to mark the cytoplasm and nucleus, mCherry-NLS to mark the nucleus only, or mCherry-fused test proteins for co-localization analysis. The inoculum was pressure infiltrated into N. benthamiana leaves at the abaxial side using 1 ml syringe without the needle. Due to low overall levels of NPR1-GFP in transgenic plants, a transient expression assay in Arabidopsis seedlings was used to monitor NPR1-GFP subcellular localization after SA treatment (FIG. 2B). To limit the imaging time in this transient assay (2 hours), a higher baseline SA concentration had to be used. Seeds of WT (Col-0) Arabidopsis were germinated on solid half-strength Murashige and Skoog (1/2 MS) medium and grown for 4 days. Agrobacterium carrying the indicated constructs was grown overnight in LB medium supplemented with appropriate antibiotics. The obtained culture was re-inoculated at 1:10 into virulence induction medium [50.78 mM MES, 0.5% Glucose, 1.734 mM NaH2PO4, 5% of 20X-AB mix (373.9 mM NH4C1, 24.34 mM MgSO4, 40.23 mM KCl, 1.36 mM CaCl2 and 0.18 mM FeSO4·7H2O), 200 μM acetosyringone] supplemented with 25 μg/ml rifampicin and grown for another 24 hr at 28° C. to OD600=0.8 (inoculum). Seedlings were vacuum-infiltrated with the inoculum, and at 48 hpi (hours post inoculation), treatments were performed by submerging the transformed seedlings in water or SA solution at indicated concentrations for 2 hr. Entire cotyledons were sampled for microscopy.
Confocal laser scanning microscopy. Unless otherwise indicated, all imaging data and micrographs for single protein imaging, co-localizations, BiFC and time-lapse were obtained from the transient expression in N. benthamiana using the relevant Agrobacteria strains. All imaging was done with confocal laser scanning fluorescence microscopy using Zeiss 880 airyscan inverted confocal microscope with a 40×/1.2 water correction objective. GFP (eGFP) was excited with a 488 nm argon laser and emission was collected with a 505-530 nm band pass filter. YFP was excited with an argon laser using a 514 nm beam splitter, and emission was detected with a 520-555 nm band pass filter. mCherry was excited with a 561 nm diode laser, and emission was detected with a 575-615 nm band pass filter. When eGFP/YFP were imaged together with mCherry, a spectral GASP detector was used to collect emission from eGFP/YFP. Propidium iodide (PI) was excited with 488 nm argon laser and emission was detected with a 590-620 nm band pass filter. Time-lapse imaging was carried out on live leaf tissue samples from N. benthamiana plants transiently expressing the protein of interest. Image acquisition was done in 5 min intervals for the duration of 2 hr by scanning 30 consecutive focal planes along the Z-axis covering the entire thickness of an epidermal cell. Z-projection was done to each time frame stack before composing a final time-lapse file. […]

[4] = test system: PR1 promoter; experiment: PR1 promoter activity, dual luciferase assay; assay type: cell-based, Nicotiana benthamiana; conditions: 2 mM SA for 24 hr
Excerpt: PR1 promoter activity and dual luciferase assay. For promoter transactivation assays, the PR1 promoter reporter (pPR1:DUAL-LUC) was transiently co-expressed in N. benthamiana together with free HA, or HA-fused WT NPR1 or npr1 mutants (effectors) followed by treatment with SA at 1 dpi. At 2 dpi (24 hr after SA treatment), leaf discs were collected, ground in liquid nitrogen, and lysed with the PLB buffer of the Dual-Luciferase Reporter Assay System (Promega, E1910). Lysate was spun down at 12,000 g for 1 min, and 10 μl was taken for measuring FLUC and RLUC activities according to manufacturer's instructions using a Victor3 plate reader (PerkinElmer). At 25° C., substrates for FLUC and RLUC were added using the automatic injector and after 3 s shaking and 3 s delay, the signals were captured for 3 s and recorded as counts per second. To obtain the PR1 promoter activity, the ratio of F-LUC and R-LUC activities was calculated for each effector and plotted relative to that of free HA.

[5] = test system: CUL3; experiment: Co-IP of Myc-CUL3 with HA-fused NPR1 or variants; assay type: binding, Arabidopsis thaliana; conditions: 1 mM SA for 5 hr
Experimental: as §1
Protein analysis and IP. Recombinant protein analysis was performed using transient expression in N. benthamiana, or stable over-expression in transgenic Arabidopsis, or expression in E. coli. Total protein extraction from plants was performed by homogenizing leaf tissue in the plant extraction buffer [50 mM Tris-HCl (pH 7.5), 150 mM NaCl, 5 mM EDTA, 0.2% Triton X-100, 0.2% Nonidet P-40] supplemented with 1 mM PMSF, 100 μM MG132, and EDTA-free protease inhibitor cocktail (Roche). For ubiquitinated protein analysis in plants, 100 μM of DUB (deubiquitinase) inhibitor (LifeSensors) and 10 mM NEM were added. Next, the lysates were cleared by centrifugation at 14,000 rpm for 15 min followed by filtering through a 0.2 μm filter. […] Pull-downs or IP experiments were done on total protein extracts by incubating protein samples in the lysis buffer overnight with indicated affinity tag or antibody conjugated to agarose or magnetic beads: GFP-trap agarose beads (Chromotek) for GFP fusions; RFP-trap agarose beads (Chromotek) for mCherry fusions; anti-HA magnetic beads (ThermoFisher) for HA tag fusions; anti-DYKDDDDK coupled magnetic agarose (ThermoFisher) for FLAG tag fusions; and glutathione magnetic agarose (ThermoFisher) for GST fusions. Unless otherwise indicated, after pull-down/IP, beads were washed 3 times and proteins were eluted by boiling in the 2×SDS sample buffer. […]

[6] = biological target: T1, Myc-CUL3; experiment: co-IP, N. benthamiana, 1 mM SA 5 hr
[7] = biological target: T1, Myc-CUL3; experiment: pull-down, N. benthamiana, SA dose response

| Molecule | protection against cell death induced by Psm ES4326/AvrRpt2 (SA-mediated survival phenotype) [2] | condensate formation in the absence of SA (constitutive) [3] | CUL3 pull-down signal in co-IP [5] | binding result [6] | also measured |
| --- | --- | --- | --- | --- | --- |
| B1 | – | – | – | – | binding result [1]: binds |
| B2 | partially compromised the protection against cell death | no effect on protein state in untreated cells | little interaction | – | SA-induced cytoplasmic body/condensate (SINC) formation ([3]; 5 mM SA for 2 hr): completely abolished the SA-induced condensation in both cytoplasm and nucleus; nuclear accumulation (nuclear-cytoplasmic partitioning) ([3]; absence of SA, compared to WT): increased nuclear accumulation; transcriptional co-activation function (PR1 promoter transactivation) [4]: reduced transcriptional co-activation function |
| B3 | stronger protection | formed cytoplasmic condensates in the absence of SA treatment | strong interactions with CUL3 | – | – |
| B4 | – | – | – | binds | – |
| B5 | – | – | – | binds | – |
| B6 | – | – | – | – | binding result [7]: binds |

— patent US20230227838A1, “ENHANCED CELL SURVIVAL AGAINST BIOTIC AND ABIOTIC STRESSES THROUGH SALICYLICK ACID-INDUCED NPR1 CONDENSATES” (priority 2020, published 2023)
